Molecular target: human DPP6 protein (human, UniProt P42658 117-865, limits assumed)
Assay: affinity versus the human DPP6 protein; method not stated

Sequence of human DPP6 protein (P42658 117-865 limits assumed): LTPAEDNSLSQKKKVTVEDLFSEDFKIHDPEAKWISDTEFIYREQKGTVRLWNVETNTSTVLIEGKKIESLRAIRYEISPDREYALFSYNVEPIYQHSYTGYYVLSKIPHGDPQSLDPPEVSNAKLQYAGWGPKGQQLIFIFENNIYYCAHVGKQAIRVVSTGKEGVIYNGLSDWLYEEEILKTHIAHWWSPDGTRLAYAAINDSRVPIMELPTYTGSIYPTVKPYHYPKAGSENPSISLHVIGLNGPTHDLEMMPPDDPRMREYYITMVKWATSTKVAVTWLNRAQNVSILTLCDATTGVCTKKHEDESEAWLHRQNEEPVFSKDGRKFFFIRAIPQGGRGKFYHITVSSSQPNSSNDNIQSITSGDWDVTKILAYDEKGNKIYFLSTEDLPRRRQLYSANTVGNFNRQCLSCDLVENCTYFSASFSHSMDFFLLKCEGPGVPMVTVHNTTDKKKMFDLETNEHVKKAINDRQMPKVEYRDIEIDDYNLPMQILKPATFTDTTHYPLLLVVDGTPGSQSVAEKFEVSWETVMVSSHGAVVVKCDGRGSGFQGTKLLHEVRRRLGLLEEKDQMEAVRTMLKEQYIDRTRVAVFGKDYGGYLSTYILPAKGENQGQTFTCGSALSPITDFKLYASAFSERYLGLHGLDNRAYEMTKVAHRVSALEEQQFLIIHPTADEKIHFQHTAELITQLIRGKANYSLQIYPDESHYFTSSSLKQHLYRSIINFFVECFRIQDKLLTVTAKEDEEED

B1: nanobody 4hD29 (VHH)
VHH: QVQLQESGGGLVQPGGSLRLSCAASGFTFSSNYMTWVRQAPGKGPEWVSGINPDGSSTYYADSVKGRFTISRDNAKNTLYLQMNSLKSEDTALYKCATGAAPRIPTTLRGQGTQVTVSS
notes: also called Nb 4hD29; 4hD29 Nb
Question: For B1, which Kd is on record?
Answer: 1.2 nM

Source: patent US20190145987A1 (UNIVERSIT LIBRE DE BRUXELLES, published 2019)
